Test results from the DeepSol protein solubility set.

assay: soluble on expression in E. coli; label from the status in PepcDB or PDB records

Sequence	soluble on expression in E. coli
MYHNSSQKRHWTFSSEEQLARLRADANRKFRCKAVANGKVLPNDPVFLEPHEEMTLCKYYEKRLLEFCSVFKPAMPRSVVGTACMYFKRFYLNNSVMEYHPRIIMLTCAFLACKVDEFNVSSPQFVGNLRESPLGQEKALEQILEYELLLIQQLNFHLIVHNPYRPFEGFLIDLKTRYPILENPEILRKTADDFLNRIALTDAYLLYTPSQIALTAILSSASRAGITMESYLSESLMLKENRTCLSQLLDIMKSMRNLVKKYEPPRSEEVAVLKQKLDRCHSAELALNVITKKRKGYEDDDYVSKKSKHEEEEWTDDDLVESL	soluble
MYKIVNNDQNKRLVIAKSKAQSLRKTFLHSCLPKMPLSQPWSHSFEICQEHNTQKRISYSRLHRSIGRLRVFLTDDNSILKSTNKFIKILIQQIAFHNLFRWYCRWNDEFQVDEHLDHFCRKDKAQEVFNVSWLVLKFNVFKLYTQKFLYTYSFITIFRLSFRFPTTFRSIF	not soluble
MYKNNFENYMNLDIYKDIEEIRAALEHLGAKKILLQLPDGLKPEVYHYFNYLSANYNVVISSSPVYGACDIGPSSIYDKVDAIVQIGHSPMPNVKYPKPTIFVEHHYNARISNIDTSLLEGKYDRIGLLFSVQYKEVADEVRKIFENKGFTVIIGKKDGRMAYDGQVLGCNFSSVHSISYDVDAYVLVSTGQFHGIGAQLSTEREVFVLDLNDYKLHSMKDEADKFIRKRYAQIFRAKEARKICIISDTRIGQRRERLARIILRQVQQMGLEGILAVTDNISNQDLENMRCDAVVYTGCPRVPIDDQQKFTMPLLTPAEFEMGFVKNSNRYVLDEIVSVDDPADKLEHHHHHH	not soluble
MYKQLEKLITLTNNDLNLVNRRFGQRTDITSEQLELLRILFNYDRLSQYDLTMKISREQSIVSRWIKKLVLKGYITSQQSSEDLRCKELILTDQARTLISQINNARCELIEARCQCLSEVELDNLNQLLDKLNQRRISL	not soluble
MYKRAEYHVITDRLKDRRRFIQVVMGARQIGKSTVVKQVLKDLDAPYQFFSADNVPTVNGAWISDCWAAVRSLKEAKEWESIILVIDEIQKIANWSEVVKKEWDDDTFHDRNIKVLLLGSSRVLLEKGLSESLAGRFEEIRMSHWSYQEMKDCFGFSLNQYLFYGGYPGAASLTDDDDRFSQYIQAAIIEATINKDILMGTPIGKPALLRRTFELGAAYSGELLSLNKMLGSLQDAGNTVTLAGYINLLDESGLLCGLQKFGYDMARRKASIPKLQVYNNALKMVYSPFTFEQAMLDRKSWGRIFESGIGAYLVSQAFVHRFEVFYWRERDDEVDFVLRKKGSVVAIEVKSNAEKRTDGLDKFSHSFKPQSAFILGDGGVRAEDFLSMDIRKLF	not soluble
MYKRYVAQIIFALTILISAPSWAETEETGPKLAYFTLEPDLTTNFYTKGKKLGYVQVRIDIMVMSQQDLAIVEHHQPLIRDAVIELLGKQTEDTIKSLSGREDLRKTLVKELNETLLPETGKTVIADLLFTKYLYQ	not soluble
MYMRAGDGRVHGIYSSTDVANLILKTTGTALMDKKKLHKLLYYMQGWTLAALGRPAFANDLQAWVDGPVSVGMRRDTHYATCFEVANRPLSNPLAPQDRDLLALMYLIAPFYAQQQTQALVDSTHAEAPWLDARGGLPPPMPIPARRSLTTHCTATFHSTPASWV	not soluble
MYMTGHSLGCYLAQIAAVEAYQKYPDFYNHVLRKVTTFSAPKVITSRTVWNAKNGFWDVGLESRKLAVSGKIKHYVVDNDNVVTPLIHNNRDIVTFTGNSRFKHRSRGYFESPMNDIPNFNIGKQATLDKHGYRDPKLDKVRFFKKQALPRSSSQPSAEPMENIASGKQVTQSSTAFGGDARRAVDGKVDGNYGHNSVTHTNFQSKPWWQVDLAKEETIRQINIYNRTDTAQDRLANFDVILLDSSGKEIE	not soluble
MYNGILPVYKERGLTSHDVVFKLRKILKTKKIGHTGTLDPEVAGVLPVCIGNATRVSDYVMDMGKAYEATVSIGRSTTTEDQTGDTLETKGVHSADFNKDDIDRLLENFKGVIEQIPPMYSSVKVNGKKLYEYARNNETVERPKRKVNIKDIGRISELDFKENECHFKIRVICGKGTYIRTLATDIGVKLGFPAHMSKLTRIESGGFVLKDSLTLEQIKELHEQDSLQNKLFPLEYGLKGLPSIKIKDSHIKKRILNGQKFNKNEFDNKIKDQIVFIDDDSEKVLAIYMVHPTKESEIKPKKVFN	soluble
MYPADFASQLNVLTLAEMKKTIHDILDFRDEDIWMLFGTLPVFPCLKDDEDQKLLSRLRNANNVTTRNDPDGRSRLNVNVFTGNVIVTDFGDETGTISNIQKDKLTDVFDKWLSSDLAKSLNCHCSEFSCLGPNVLVKNMYYPNMDFKDNERHMHKQPQIIQF	not soluble
MYSGFTREKSDLRTEDVEITKEPFTLLIMGIEDYATDGQNGRTDSLMFATVNPKTQKISLMSIPRDSRVPIVGKNKEDKINAAHAYGGEEMAIKTVEGFLKVPVDHYVKIDFQGFKGIVDAVGGVTVDVPFDFWERSDVDYYKKIQFKQGQQELNGEEALAYVRMRKQDPNGDYGRAARQRQLLAAVAQKLNSTSTVFKIKDLTSVVGKYIKTDIPISDGLALYKKLSGFDPSTIQTLKLEGEDKKIGGIYYFLPDPNGVEAVRNEIKKELGEKVTTQENSTTKTESTPSSNSNSNEKAKKETNRNQNKTPTDPPPSTNAHAEWIMRNQQLEHHHHHH	soluble
MYSIEVRTHSALHVVKGAVVKVLGSEAKWTYSTYVKGNKGVLIVKFDRKPSDEEIREIERLANEKVKENAPIKIYELPREEAEKMFGEDMYDLFPVPEDVRILKVVVIEDWNVNACNKEHTKTTGEIGPIKIRKVRFRKSKGLLEIHFELLELENPSLEHHHHHH	soluble
MYSKIIERELETLKTIFQEASRANTHYEFISVVGKAVSEFLGSEGYRIEWDGRGSAKGNEVVLEIRINTYAKVNLYFPLKKGRKLSKVEEEFLKFVKEVSERIAEKITSYTIYKTLLDSYPFVAYLVEAEPPYPQKILYVTPSLEKWLGWKPEEISKDW	not soluble
MYSVLIPVDRDEARASNQASYVSQLPDATDTVEATVLYVVPPDEFADAAEVAFDDIDAAVQAANQLEAAGVSVTRMVDDGGVAQQIVRTATELDSDEIVVGGRKRSGVSKVLLGSTAQDVLLSAERPVTITGESVVL	not soluble
MYTAENAPGVAVLLSGDADVPGPLTGLPTHQDNLDTVIGRYSRLIVVGADADLGAVLTRLLRTDRLDVEVGYVPRRRSPATRAYRLPAGRRAARRARCGVARRVPLIRDETGSVIVGRAQWLPAEEQALIHGEAVVDDTVLFDGDVAGVCIEPTLTLPGLRAAVDGAGKWRRWIGGRAAQLGTTGAAVLRDGVAAPRPVRRSTFYRNVEGWLLVR	soluble
MYTITDIAPTDAEFIALIAALDAWQETLYPAESNHLLDLSQLPPQTVIALAIRSPQGEAVGCGAIVLSEEGFGEMKRVYIDPQHRGQQLGEKLLAALEAKARQRDCHTLRLETGIHQHAAIALYTRNGYQTRCAFAPYQPDPLSVFMEKP	not soluble
MYTKNFSNSRMEVKGNNGCSAPIIRKPFKHIVLTVPSSDLDNFNTVFYVQPQYINQALHLANAFQGAIDPLNLNFNFEKALQIANGIPNSAIVKTLNQSVIQQTVEISVMVEQLKKIIQEVLGLVINSTSFWNSVEATIKGTFTNLDTQIDEAWIFWHSLSAHNTSYYYNILFSIQNEDTGAVMAVLPLAFEVSVDVEKQKVLFFTIKDSARYEVKMKALTLVQALHSSNAPIVDIFNVNNYNLYHSNHKIIQNLNLSN	soluble
MYTPLYRPRYPEGLDPGIQHGVLRLLNPDPRVGEAEHRLENLLEPPYGGPPPPYYQSRPLRPYCYVSAEAGLNNLDPAVPRFVEVLSQPLVYLSPQETLV	soluble
MYTTQMDAAKKGIITDEMRIVAEKEGVHVEKLRELVASGKVVIPANKNHKKLEPQGIGEGLRTKINVNIGISKDCCNFEMELEKAKKAIELKAEAIMDLSSYGKTREFRRKLVEMSPVMIGTVPVYDAVGFYEKDLKDISAEEFFEVVEKHAEDGVDFMTIHAGINRETAKRFKENGRLTNIVSRGGSLIFAWMELTGNENPFYEQYDRLLQIFEKYDVTISLGDALRPGSINDSTDASQIQELIVLGELTKRAWEKNVQVMIEGPGHMAINEIAPNMVLEKKLCHGAPFYVLGPIVTDIAPGYDHITSAIGGAIAAANGADFLCYVTPAEHLRLPDIDDMKEGIIAARIAAHAADIAKGIKGAREWDYQMSEARRNLDWNRMFELAIDREKAERYRKSSMPEDEDTCTMCGRMCAVKNTNKALKGEKINIL	not soluble
MYVTVTEAAYKKIMDTIPSEAKYIKLFYDNEGCGCVMSGIIDLVAVAEKDERDVDIESSTMNFIADRTKLVFMDDKLTVDWHEGGGTFQLKSPSQFYNPNMKLHVRV	not soluble
MYYADSSPALVGLIALNARLHGIRADVVDFMAASTPAGEQAISHVYLPFSVAGVPSTFLVSM	not soluble
NAIQWVEHTDRVINNTNRSMKLSIDMETGMRGFLLTGDQHFLDPYEIAKPLLVAELNGLQDLVKDNPTQQDRFRRLFTMQQEWNVFAQDMIDLRRNNGDFQTPVLAGRGKRITDQIRTEYEQAVEMEQQLRLTRNAE	not soluble
NAMYTITDIAPTDAEFIALIAALDAWQETLYPAESNHLLDLSQLPPQTVIALAIRSPQGEAVGCGAIVLSEEGFGEMKRVYIDPQHRGQQLGEKLLAALEAKARQRDCHTLRLETGIHQHAAIALYTRNGYQTRCAFAPYQPDPLSVFMEKPLFADLRSAAL	soluble
NEVDDMDTSDTQWGWFYLAECGKWHMFQPDTNSQCSVSSEDIEKSFKTNPCGSISFTTSKFSYKIDFAEMKQMNLTTGKQRLIKRAPFS	soluble
NGLLYKRWVKQRAEDVEKWSGGRLGYVHIQSMGDGSFRTVYSDILGKYNNCDGIVIDTRFNGGGRLHEDIEILFSGQKYFTQVVRGREACDMPSRRWNKPSIMLQCEANYSNAHGTPWVYKHQNIGKLVGMPVPGTMTSVSWETLQDPSLVFGIPIIGYRLPDGSYLENTQLEPDIKVANSPETIVKGEDTQLKMAVDELLKEIDSRKK	not soluble
NHINPVNPAEPALYLPTQYDVREFAEKTKNETVYVFTSVGEYWPLAWYLRDHRAYFITTGVEGRSFISGNYIVVNATNDMRLDKTNLEFVETMVVRCWTFWTTPELQRIPAFLAFREPLTDVSCMNFSVYRAI	not soluble
NIYDSANELSRGLRGLPEYKAVKAAKDAIAADAEASKIFTDYLAFQEEIQKLAQTGQMPDASFQAKMEGFGKQIQGNSLLSEFFTKQQQLAIYLSDIEKIVFEPVSELLK	not soluble
NKSDAAAKQIKKLEEDFDGRIGVFAIDTGSGNTFGYRSDERFPLCSSFKGFLAAAVLERVQQKKLDINQKVKYESRDLEYHSPITTKYKGSGMTLGDMASAALQYSDNGATNIIMERFLGGPEGMTKFMRSIGDNEFRLDRWELELNTAIPGDKRDTSTPKAVANSLNKLALGNVLNAKVKAIYQNWLKGNTTGDARIRASVPADWVVGDKTGSCGAYGTANDYAVIWPKNRAPLIVSIYTTRKSKDDKHSDKTIAEASRIAIQAID	soluble
